Our source for the TNFa, IFNg, or IL-2 in supernatant by ELISA, T cells with peptide-pulsed A375 cells (× less antigen) values is patent US20250195573A1.

The target of this assay is MART-1(27-35) presented by HLA-A2 on A375 melanoma cells (human) (UniProt Q16655). In words: cell-based or functional assay.

The substance “DMF5 β:CD3z:MyD88 (from UniProt P20963 52-164; Q99836 1-155) (TCR)” yielded a TNFa, IFNg, or IL-2 in supernatant by ELISA, T cells with peptide-pulsed A375 cells (× less antigen) of 10.
